Data: the supplement of paper PMC11246515
± gives the standard deviation of the averaged measurements.

Assay: total protein half-life in vivo (active degradation + dilution); higher = more stable protein
[1] = E. coli NCM3722 delta-clpP delta-lon delta-hslV, growth: N-lim chemostat, doubling time 6 h
[2] = E. coli NCM3722 delta-clpP, growth: N-lim chemostat, doubling time 6 h
[3] = E. coli NCM3722 delta-hslV, growth: N-lim chemostat, doubling time 6 h
[4] = E. coli NCM3722 delta-lon, growth: N-lim chemostat, doubling time 6 h
[5] = E. coli NCM3722 delta-smpB, growth: N-lim chemostat, doubling time 6 h
[6] = wild type E. coli NCM3722, growth: C-lim chemostat, doubling time 3 h
[7] = wild type E. coli NCM3722, growth: C-lim chemostat, doubling time 6 h
[8] = wild type E. coli NCM3722, growth: C-lim chemostat, doubling time 12 h
[9] = wild type E. coli NCM3722, growth: N-lim chemostat, doubling time 6 h
[10] = wild type E. coli NCM3722, growth: N-lim chemostat, doubling time 12 h
[11] = wild type E. coli NCM3722, growth: P-lim chemostat, doubling time 6 h
[12] = wild type E. coli NCM3722, growth: P-lim chemostat, doubling time 12 h

Sequence | total protein half-life in vivo [1] [h] | total protein half-life in vivo [2] [h] | total protein half-life in vivo [3] [h] | total protein half-life in vivo [4] [h] | total protein half-life in vivo [5] [h] | total protein half-life in vivo [6] [h] | total protein half-life in vivo [7] [h] | total protein half-life in vivo [8] [h] | total protein half-life in vivo [9] [h] | total protein half-life in vivo [10] [h] | total protein half-life in vivo [11] [h] | total protein half-life in vivo [12] [h]
MPALDLIRPSVTAMRVIASVNADFARELKLPPHIRSLGLISADSDDVTYIAADEATKQAMVEVVYGRSLYAGAAHGPSPTAGEVLIMLGGPNPAEVRAGLDAMIAHIENGAAFQWANDAQDTAFLAHVVSRTGSYLSSTAGITLGDPMAYLVAPPLEATYGIDAALKSADVQLATYVPPPSETNYSAAFLTGSQAACKAACNAFTDAVLEIARNPIQRA | 6.04 ± 0.88 | 4.87 | 4.39 ± 0.31 | 4.68 ± 0.094 | 4.69 ± 0.1 | 3.11 ± 0.15 | 5.97 ± 0.72 | 11.95 ± 0.013 | 4.87 ± 0.41 | 7.99 | 6.1512 ± 0.003 | 11.4 ± 0.5
MPDAKKQGRSNKAMTFFVCFLAALAGLLFGLDIGVIAGALPFIADEFQITSHTQEWVVSSMMFGAAVGAVGSGWLSFKLGRKKSLMIGAILFVAGSLFSAAAPNVEVLILSRVLLGLAVGVASYTAPLYLSEIAPEKIRGSMISMYQLMITIGILGAYLSDTAFSYTGAWRWMLGVIIIPAILLLIGVFFLPDSPRWFAAKRRFVDAERVLLRLRDTSAEAKRELDEIRESLQVKQSGWALFKENSNFRRAVFLGVLLQVMQQFTGMNVIMYYAPKIFELAGYTNTTEQMWGTVIVGLTNVLATFIAIGLVDRWGRKPTLTLGFLVMAAGMGVLGTMMHIGIHSPSAQYFAIAMLLMFIVGFAMSAGPLIWVLCSEIQPLKGRDFGITCSTATNWIANMIVGATFLTMLNTLGNANTFWVYAALNVLFILLTLWLVPETKHVSLEHIERNLMKGRKLREIGAHD [P0AEP1] | – | 4.26 | 4.28 | – | 6.91 | 2.58 | 4.51 | – | – | – | 5.628 ± 0.028 | 9.86
MPHNPIRVVVGPANYFSHPGSFNHLHDFFTDEQLSRAVWIYGKRAIAAAQTKLPPAFGLPGAKHILFRGHCSESDVQQLAAESGDDRSVVIGVGGGALLDTAKALARRLGLPFVAVPTIAATCAAWTPLSVWYNDAGQALHYEIFDDANFMVLVEPEIILNAPQQYLLAGIGDTLAKWYEAVVLAPQPETLPLTVRLGINNAQAIRDVLLNSSEQALSDQQNQQLTQSFCDVVDAIIAGGGMVGGLGDRFTRVAAAHAVHNGLTVLPQTEKFLHGTKVAYGILVQSALLGQDDVLAQLTGAYQRFHLPTTLAELEVDINNQAEIDKVIAHTLRPVESIHYLPVTLTPDTLRAAFKKVESFKA | 4.77 ± 0.33 | 4.6 ± 0.098 | 4.1 ± 0.11 | 4.91 ± 0.17 | 4.21 ± 0.15 | 2.67 ± 0.1 | 5.28 ± 0.084 | 9.15 ± 1.6 | 4.38 | 7.78 | 5.64 ± 0.28 | 11.2 ± 0.17
MPIRVPDELPAVNFLREENVFVMTTSRASGQEIRPLKVLILNLMPKKIETENQFLRLLSNSPLQVDIQLLRIDSRESRNTPAEHLNNFYCNFEDIQDQNFDGLIVTGAPLGLVEFNDVAYWPQIKQVLEWSKDHVTSTLFVCWAVQAALNILYGIPKQTRTEKLSGVYEHHILHPHALLTRGFDDSFLAPHSRYADFPAALIRDYTDLEILAETEEGDAYLFASKDKRIAFVTGHPEYDAQTLAQEFFRDVEAGLDPDVPYNYFPHNDPQNTPRASWRSHGNLLFTNWLNYYVYQITPYDLRHMNPTLD | 3.26 ± 0.67 | 1.85 ± 0.45 | 1.61 ± 0.2 | 1.87 ± 0.033 | 1.52 ± 0.29 | 2.61 ± 0.097 | 3.27 ± 0.32 | 4.92 ± 0.52 | 1.58 ± 0.093 | 2.14 ± 0.23 | 3.94 ± 0.39 | 6.4 ± 0.19
MPKFRVSLFSLALMLAVPFAPQAVAKTAAATTASQPEIASGSAMIVDLNTNKVIYSNHPDLVRPIASISKLMTAMVVLDARLPLDEKLKVDISQTPEMKGVYSRVRLNSEISRKDMLLLALMSSENRAAASLAHHYPGGYKAFIKAMNAKAKSLGMNNTRFVEPTGLSVHNVSTARDLTKLLIASKQYPLIGQLSTTREDMATFSNPTYTLPFRNTNHLVYRDNWNIQLTKTGFTNAAGHCLVMRTVINNKPVALVVMDAFGKYTHFADASRLRTWIETGKVMPVPAAALSYKKQKAAQMAAAGQTAQND [P0AFI5] | 3.37 ± 0.94 | 4.68 ± 1.7 | 2.57 ± 0.64 | 2.78 ± 0.39 | 1.81 ± 0.06 | 1.2 ± 0.078 | 1.65 ± 0.34 | 5.03 ± 1.2 | 2.93 ± 0.48 | 3.05 ± 0.18 | 3.78 ± 3.8 | 5.78 ± 1.1
MPKIVILPHQDLCPDGAVLEANSGETILDAALRNGIEIEHACEKSCACTTCHCIVREGFDSLPESSEQEDDMLDKAWGLEPESRLSCQARVTDEDLVVEIPRYTINHAREH [P0A9R4] | 4.926 ± 0.026 | 5.96 ± 1.3 | 4.83 ± 0.91 | 6.22 ± 1.6 | 3.67 ± 0.56 | 3.16 ± 0.84 | – | 6.59 ± 0.084 | 4.05 ± 0.7 | 8.81 ± 2.2 | 5.22 ± 0.39 | 10.8 ± 0.6
MPLHNLTRFPRLEFIGAPTPLEYLPRFSDYLGREIFIKRDDVTPMAMGGNKLRKLEFLAADALREGADTLITAGAIQSNHVRQTAAVAAKLGLHCVALLENPIGTTAENYLTNGNRLLLDLFNTQIEMCDALTDPNAQLEELATRVEAQGFRPYVIPVGGSNALGALGYVESALEIAQQCEGAVNISSVVVASGSAGTHAGLAVGLEHLMPESELIGVTVSRSVADQLPKVVNLQQAIAKELELTASAEILLWDDYFAPGYGVPNDEGMEAVKLLARLEGILLDPVYTGKAMAGLIDGISQKRFKDEGPILFIHTGGAPALFAYHPHV | – | 5.78 ± 0.85 | 5.5 ± 0.72 | 6.76 ± 0.46 | 5.72 ± 0.2 | 3.17 ± 0.16 | 5.52 ± 0.73 | – | 5.78 ± 0.087 | 11.6 ± 0.43 | 5.91 ± 0.16 | 12.259 ± 0.0094
MPLLDSFTVDHTRMEAPAVRVAKTMNTPHGDAITVFDLRFCVPNKEVMPERGIHTLEHLFAGFMRNHLNGNGVEIIDISPMGCRTGFYMSLIGTPDEQRVADAWKAAMEDVLKVQDQNQIPELNVYQCGTYQMHSLQEAQDIARSILERDVRINSNEELALPKEKLQELHI | 5.42 ± 0.74 | 4.79 ± 0.64 | 4.37 ± 0.6 | 4.38 ± 0.28 | 3.97 ± 0.12 | 2.71 ± 0.32 | 4.05 ± 0.31 | 7.07 ± 0.68 | 3.61 ± 0.1 | 5.61 ± 0.47 | 4.72 ± 0.19 | 9.47 ± 0.63
MPLSAQQLAAQKNLSYVLAEKLAQRILKGEYEPGTILPGEIELGEQFGVSRTAVREAVKTLTAKGMVLPRPRIGTRVMPQSNWNFLDQELLTWWMTEENFHQVIDHFLVMRICLEPQACLLAATVGTAEQKAHLNTLMAEMAALKENFRRERWIEVDMAWHEHIYEMSANPFLTSFASLFHSVYHTYFTSITSDTVIKLDLHQAIVDAIIQSDGDAAFKACQALLRSPDK | 4.46 ± 0.8 | 6.01 | 5.31 | 6.07 ± 0.2 | 5.77 ± 0.38 | 2.88 | 6.4 ± 1.1 | 12.2 | 3 | 10.5 | 4.72 ± 1.2 | 11.4 ± 0.35
MPLSPYLSFAGNCSDAIAYYQRTLGAELLYKISFGEMPKSAQDSAENCPSGMQFPDTAIAHANVRIAGSDIMMSDAMPSGKASYSGFTLVLDSQQVEEGKRWFDNLAANGKIEMAWQETFWAHGFGKVTDKFGVPWMINVVKQQPTQ | 4.69 ± 0.16 | 4.35 ± 0.15 | 5.15 ± 1.1 | 6.806 ± 0.035 | 4.57 ± 0.27 | 3.13 ± 0.35 | 5.29 ± 0.48 | 10.04 ± 0.096 | 4.31 ± 0.37 | 8.56 ± 1.2 | 5.88 ± 0.59 | 12.4 ± 0.98
MPRANEIKKGMVLNYNGKLLLVKDIDIQSPTARGAATLYKMRFSDVRTGLKVEERFKGDDIVDTVTLTRRYVDFSYVDGNEYVFMDKEDYTPYTFTKDQIEEELLFMPEGGMPDMQVLTWDGQLLALELPQTVDLEIVETAPGIKGASASARNKPATLSTGLVIQVPEYLSPGEKIRIHIEERRYMGRAD [P0A6N8] | 5.17 ± 0.42 | 4.37 ± 0.34 | 4.21 ± 0.071 | 5.35 ± 0.38 | 4.45 ± 0.71 | 3.25 ± 0.46 | 5.42 ± 0.098 | 11.1 ± 0.96 | 4.59 ± 0.062 | 6.944 ± 0.044 | 5.26 ± 0.26 | 9.67 ± 0.66
MPRFFTRHAATLFFPMALILYDFAAYLSTDLIQPGIINVVRDFNADVSLAPAAVSLYLAGGMALQWLLGPLSDRIGRRPVLITGALIFTLACAATMFTTSMTQFLIARAIQGTSICFIATVGYVTVQEAFGQTKGIKLMAIITSIVLIAPIIGPLSGAALMHFMHWKVLFAIIAVMGFISFVGLLLAMPETVKRGAVPFSAKSVLRDFRNVFCNRLFLFGAATISLSYIPMMSWVAVSPVILIDAGSLTTSQFAWTQVPVFGAVIVANAIVARFVKDPTEPRFIWRAVPIQLVGLSLLIVGNLLSPHVWLWSVLGTSLYAFGIGLIFPTLFRFTLFSNKLPKGTVSASLNMVILMVMSVSVEIGRWLWFNGGRLPFHLLAVVAGVIVVFTLAGLLNRVRQHQAAELVEEQ | – | 7.03 | – | – | – | – | – | – | – | – | – | –
MPSAHSVKLRPLEREDLRYVHQLDNNASVMRYWFEEPYEAFVELSDLYDKHIHDQSERRFVVECDGEKAGLVELVEINHVHRRAEFQIIISPEYQGKGLATRAAKLAMDYGFTVLNLYKLYLIVDKENEKAIHIYRKLGFSVEGELMHEFFINGQYRNAIRMCIFQHQYLAEHKTPGQTLLKPTAQ [P0A951] | 5.494 ± 0.021 | 6.01 ± 1.7 | 5.04 ± 1.1 | – | 5.16 ± 0.071 | 2.7 ± 0.18 | 5.17 ± 0.15 | 10.5 ± 0.81 | 4.92 ± 0.18 | 9.78 ± 1.9 | 5.06 ± 0.2 | 11.6 ± 0.61
